This note sets out measurements from patent US20180030137A1 (ADURO BIOTECH HOLDINGS EUROPE B V, published 2018).

Assay [1] has as its target T1, Human PD-1 (Swiss-Prot entry Q15116), full length, on cells (human, UniProt Q15116 21-288).
T1 construct: Full length open reading frame of hPD-1 stably expressed on CHO-K1 cells; also endogenous PD-1 on CD3/CD28-stimulated human CD3+ T cells and PD-1 on transfected Jurkat cells; also called hPD-1; hPDCD1
As to the kind of experiment: CELISA on CHO-K1.hPDCD1 cells; blocking of biotinylated hPD-L1 Fc. On the procedure:
(§1) To further characterize these mutant hPD-1 antibodies they were tested for binding to hPD-1 in CELISA format using CHO-K1 cells (American Type Culture Collection, Manassas, Va.), stably transfected with cDNA encoding the full length open reading frame of hPDCD1 (hPD-1), subcloned into the pCI-neo vector (Promega). Parental CHO-K1 or CHO-K1.hPDCD1 cells were seeded in culture medium (DMEM-F12 (Gibco) with 10% Fetal Bovine Serum (Hyclone) and Pen/Strep (Gibco)) in tissue culture plates and incubated for 48 hours at 37° C. Subsequently culture medium was removed and cells were incubated for 1 hour at 37° C. with the mutant hPD-1 antibodies (10 μg/ml (=66 nM) and dilutions thereof). Next, cells were washed with Phosphate-Buffered Saline/0.05% Tween (PBST) and incubated for 1 hour at 37° C. with Goat-anti-human IgG-HRP (Southern Biotech). Subsequently, cells were washed 3 times with PBST and anti-hPD1 immunoreactivity was visualized with 100 al TMB Stabilized Chromagen (Invitrogen). Reactions were stopped with 100 al 0.5 M H2SO4 and absorbances were read at 450 and 610 nm. […] Blockade of hPD-L1 binding by the mutant hPD-1 antibodies was tested in CELISA format. Parental CHO-K1 or CHO-K1.hPDCD1 cells were seeded in tissue culture plates and incubated for 72 hours at 37° C. in culture medium. Subsequently culture medium was removed and cells were incubated for 1 hour with the mutant hPD-1 antibodies (10 μg/ml (=66 nM) and dilutions thereof) at 37° C. […] Cells were then washed three times with PBST followed by addition of Streptavidin-HRP conjugate on the cells, which was incubated for 1 hour at 37° C. […] Reactions were stopped with 100 al 0.5 M H2SO4 and absorbances were read at 450 and 610 nm. Calculated IC50 values in Table 12 for the blockade of hPD-L1 represent the concentration at which half of the inhibition is observed.

Assay [2] concerns the target T1, Human PD-1 (Swiss-Prot entry Q15116), …. The experiment in a line: CELISA on CHO-K1.hPDCD1 cells. On the procedure:
as §1

In assay [3] the target is Human PD-1 (Swiss-Prot entry Q15116), full length, on cells (human) (UniProt Q15116). The experiment in a line: CELISA on CHO-K1.hPDCD1 cells; blocking of biotinylated hPD-L2 Fc.
Assay [4] shares this target. As to the kind of experiment: CELISA on CHO-K1.hPDCD1 cells; blocking of biotinylated hPD-L1 Fc.
The target is the same in assay [5].
Assay [6] has as its target T2, hPD-1/Fc fusion protein (R&D Systems) (human, UniProt Q15116 25-167).
T2 construct: Bought reagent; also called Recombinant hPD-1/Fc; not shown: Fc part of the bought fusion protein
As to the kind of experiment: BLI competition: second antibody on hPD-1/Fc held by immobilised hPD1.29H5L4 (competitor: hPD1.29H5L4).

Assay [7] addresses Human PD-1 (Swiss-Prot entry Q15116), full length, on cells (human) (UniProt Q15116). The experiment in a line: CELISA on CHO-K1.hPDCD1 cells.
Assay [8] deals with T2, hPD-1/Fc fusion protein (R&D Systems). The experiment in a line: BLI (Octet RED96), hPD-1/Fc amine-coupled, IgG in solution, 1:1 global fit. On the procedure: This assay was, performed by coupling hPD-1/Fc fusion protein (R&D Systems) to amine-reactive second generation biosensors (Fortebio) using standard amine chemistry. […] Amine-reactive biosensors were pre-wet by immersing them in wells containing 0.1M MES pH=5.5 for 10 minutes. The biosensors were then activated using a 0.1M NHS/0.4M EDC mixture for 5 minutes. hPD-1/Fc fusion protein was coupled by immersing the biosensors in a solution of 12 ug/mL hPD-1/Fc in 0.1 M MES for 7.5 minutes. The biosensor surface was quenched using a solution of 1M ethanolamine for 5 minutes. Biosensors were equilibrated in Octet kinetics buffer (ForteBio) for 5 minutes. […] Dissociation was measured after transfer of the biosensors into kinetics buffer and monitoring of the interferometry signal for 45 minutes. The assay was run with a plate temperature of 30° C. The observed on and off rates (kobs and kd) were fit using a 1:1 binding global fit model comprising all concentrations tested, and the equilibrium binding constant KD was calculated.

The target in assay [9] is T1, Human PD-1 (Swiss-Prot entry Q15116), …. As to the kind of experiment: CELISA on CHO-K1.hPDCD1 cells; blocking of biotinylated hPD-L1 Fc. On the procedure:
(§2) To further characterize these mutant hPD-1 antibodies they were tested for binding to hPD-1 in CELISA format using CHO-K1 cells (American Type Culture Collection, Manassas, Va.), stably transfected with cDNA encoding the full length open reading frame of hPDCD1 (hPD-1), subcloned into the pCI-neo vector (Promega). Parental CHO-K1 or CHO-K1.hPDCD1 cells were seeded in culture medium (DMEM-F12 (Gibco) with 10% Fetal Bovine Serum (Hyclone) and Pen/Strep (Gibco)) in tissue culture plates and incubated for 48 hours at 37° C. Subsequently culture medium was removed and cells were incubated for 1 hour at 37° C. with the mutant hPD-1 antibodies (10 μg/ml (=66 nM) and dilutions thereof). Next, cells were washed with Phosphate-Buffered Saline/0.05% Tween (PBST) and incubated for 1 hour at 37° C. with Goat-anti-human IgG-HRP (Southern Biotech). Subsequently, cells were washed 3 times with PBST and anti-hPD1 immunoreactivity was visualized with 100 al TMB Stabilized Chromagen (Invitrogen). Reactions were stopped with 100 al 0.5 M H2SO4 and absorbances were read at 450 and 610 nm. […] Blockade of hPD-L1 binding by the mutant hPD-1 antibodies was tested in CELISA format. […] Reactions were stopped with 100 al 0.5 M H2SO4 and absorbances were read at 450 and 610 nm. Calculated IC50 values in Table 12 for the blockade of hPD-L1 represent the concentration at which half of the inhibition is observed.
This is another data set of the same source.

Assay [10] shares this target. As to the kind of experiment: cell-based or functional assay.
For assay [11] the target is unchanged. The experiment in a line: CELISA on CHO-K1.hPDCD1 cells; blocking of biotinylated hPD-L2 Fc. The protocol:
Parental CHO-K1 or CHO-K1.hPDCD1 cells were seeded in tissue culture plates and incubated for 72 hours at 37° C. in culture medium. […] Cells were then washed three times with PBST followed by addition of Streptavidin-HRP conjugate on the cells, which was incubated for 1 hour at 37° C. […] Reactions were stopped with 100 al 0.5 M H₂SO₄ and absorbances were read at 450 and 610 nm. […] Calculated IC50 values represent the concentration at which half of the inhibition is observed.

Assay [12] has the same target. The experiment in a line: CELISA on CHO-K1.hPDCD1 cells. The protocol: as §2
The source holds these as a separate data set.

Positions count from the first letter of the chain named. In names and notes the source's numbering stands. Read-outs that look alike come from different tables or passages of the source.

T2 sequence (Q15116 25-167 limits assumed): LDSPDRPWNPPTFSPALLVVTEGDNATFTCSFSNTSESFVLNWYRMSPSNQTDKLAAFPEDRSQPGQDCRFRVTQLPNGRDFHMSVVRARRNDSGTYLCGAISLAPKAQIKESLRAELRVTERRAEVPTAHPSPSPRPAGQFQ
Sequence of Human PD-1 (Swiss-Prot entry Q15116), full length, on cells (human) (Q15116 21-288): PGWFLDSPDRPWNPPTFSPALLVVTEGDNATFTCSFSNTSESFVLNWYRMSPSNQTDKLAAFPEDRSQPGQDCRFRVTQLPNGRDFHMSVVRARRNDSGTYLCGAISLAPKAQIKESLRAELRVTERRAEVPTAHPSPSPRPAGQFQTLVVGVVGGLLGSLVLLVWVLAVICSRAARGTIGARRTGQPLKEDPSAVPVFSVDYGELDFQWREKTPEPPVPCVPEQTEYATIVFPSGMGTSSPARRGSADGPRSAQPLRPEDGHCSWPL
T1 sequence (Q15116 21-288): as above

B1: hPD1.29H5_A9P_I28T_T31S_L4 (antibody, V domains shown)
VH: EVQLVQSGPEVKKPGASVKVSCKASGYTFTSYYIHWVKQAPGKGLEWIGWIFPGDVSTQYNEKFQDKATITVDKSASTAYMQLSSLRSEDTAVYYCTREAYDYAVYWGQGTLVTVSS
VL: DIQMTQAPSSLSASVGDRVTITCKASQNVDTNVAWFQQKPGKAPKSLIFSASYRYSGVPSRFSGSGSGTDFTLTISSLQPEDFATYYCQQYNNYPFTFGGGTKLEIK
notes: Mutant of hPD1.29H5L4 (human IgG4 S241P kappa format of the parent)
With B1, the IC50 in assay [1] turned out to be 1.2 nM. Also, in assay [2], a half-maximal response (EC50) required 0.3 nM.

B2: hPD1.29H5_I28D_T31D_L4 (antibody, V domains shown)
VH: B1 VH with P9A, T28D, S31D
VL: B1 VL
notes: as for B1
B2 yielded an IC50 in assay [1] of 1.4 nM. The EC50 in [2] turned out to be 0.4 nM.

B3: hPD1.29H5_K12V_L4 (antibody, V domains shown)
VH: B1 VH with P9A, K12V, T28I, S31T
VL: B1 VL
notes: as for B1
For the molecule B3, the 50% inhibitory concentration (IC50) in assay [1] was 1.4 nM. Besides, the EC50 in [2] was 0.4 nM.

B4: hPD1.29H5_A9P_K12V_I28T_T31S_L4 (antibody, V domains shown)
VH: B1 VH with K12V
VL: B1 VL
notes: as for B1
Consider B4, for which the concentration for half-maximal inhibition (IC50) in assay [1] was 1.2 nM. Besides, in assay [2], the EC50 turned out to be 0.3 nM.

B5: hPD1.29H5_I28D_L4 (antibody, V domains shown)
VH: B1 VH with P9A, T28D, S31T
VL: B1 VL
notes: as for B1
B5 yielded an IC50 in assay [1] of 1.6 nM. For the same molecule, in assay [2], the midpoint of the response, the EC50, lay at 0.3 nM.

B6: hPD1.29H5_Y32D_L4 (antibody, V domains shown)
VH: B1 VH with P9A, T28I, S31T, Y32D
VL: B1 VL
notes: IgG4 S241P kappa format of the parent
Turning to B6, the IC50 in assay [1] worked out at 1.4 nM. In assay [2], this molecule yielded an EC50 of 0.3 nM.

B7: hPD1.29H5_T30D_L4 (antibody, V domains shown)
VH: B1 VH with P9A, T28I, T30D, S31T
VL: B1 VL
notes: as for B1
B7 had an IC50 in assay [1] of 1.6 nM. The EC50 in [2] came to 0.3 nM.

B8: hPD1.29H5_T31D_L4 (antibody, V domains shown)
VH: B1 VH with P9A, T28I, S31D
VL: B1 VL
notes: as for B1
B8 yielded an IC50 in assay [1] of 1.7 nM. The EC50 in assay [2] is 0.4 nM.

B9: hPD1.29H5_K12V_I28T_T31S_L4 (antibody, V domains shown)
VH: B1 VH with P9A, K12V
VL: B1 VL
notes: as for B1
In [1], B9 returned an IC50 of 1.2 nM. The midpoint of the response in assay [2], the EC50, lay at 0.3 nM.

B10: hPD1.29H5_I28D_T30D_L4 (antibody, V domains shown)
VH: B1 VH with P9A, T28D, T30D, S31T
VL: B1 VL
notes: as for B1
As for B10, in assay [1], the 50% inhibitory concentration (IC50) is 1.6 nM. This molecule also returned a concentration giving a half-maximal response (EC50) in [2] of 0.4 nM.

B11: hPD1.29H5_I28D_Y32D_L4 (antibody, V domains shown)
VH: B1 VH with P9A, T28D, S31T, Y32D
VL: B1 VL
notes: as for B6
For B11, in assay [1], the concentration for half-maximal inhibition (IC50) worked out at 1.3 nM. Further, the EC50 in [2] amounted to 0.4 nM.

B12: hPD1.29H5_I28T_T31S_L4 (antibody, V domains shown)
VH: B1 VH with P9A
VL: B1 VL
notes: as for B1
B12 gave a 50% inhibitory concentration (IC50) in [1] of 1.1 nM. The same molecule showed an EC50 in assay [2] of 0.3 nM.

B13: hPD1.29H5_A9P_K12V_L4 (antibody, V domains shown)
VH: B1 VH with K12V, T28I, S31T
VL: B1 VL
notes: as for B1
With B13, in assay [1], half-maximal inhibition (IC50) required 1.3 nM. This molecule also showed an EC50 in [2] of 0.4 nM.

B14: hPD1.29H5_A9P_L4 (antibody, V domains shown)
VH: B1 VH with T28I, S31T
VL: B1 VL
notes: as for B1
In assay [1], B14 yielded a half-inhibitory concentration (IC50) of 1.4 nM. Further, in [2], the EC50 was found to be 0.4 nM.

B15: H4H7798N (antibody, from another filing, human IgG4, V domains shown)
VH: EVQLLESGGVLVQPGGSLRLSCAASGFTFSNFGMTWVRQAPGKGLEWVSGISGGGRDTYFADSVKGRFTISRDNSKNTLYLQMNSLKGEDTAVYYCVKWGNIYFDYWGQGTLVTVSS
VL: DIQMTQSPSSLSASVGDSITITCRASLSINTFLNWYQQKPGKAPNLLIYAASSLHGGVPSRFSGSGSGTDFTLTIRTLQPEDFATYYCQQSSNTPFTFGPGTVVDFRR
In assay [3], B15 registered an IC50 of 0.57 nM. In addition, the IC50 in assay [4] was 0.45 nM. This molecule had an IC50; NFAT-luciferase signal (RLU) of Jurkat cells expressing human PD-1, with CHO cells expressing hPD-L1 in [5] of 7.27 nM. Also, the Binding (nm) in assay [6] was found to be 0.014 nm. For the same molecule, the concentration giving a half-maximal response (EC50) in assay [7] turned out to be 0.1 nM. In [8], the dissociation constant (Kd) is 0.011 nM, the koff was 1.2e-05 s⁻¹ and the kon turned out to be 1.1e+06 M⁻¹ s⁻¹.

B16: 5C4 (antibody, V domains shown)
VH: QVQLVQSGAEVKKPGSSVKVSCKASGFTFTTYYISWVRQAPGQGLEYLGYINMGSGGTNYNEKFKGRVTITADKSTSTAYMELSSLRSEDTAVYYCAILGYFDYWGQGTMVTVSS
VL: DVVMTQSPLSLPVTLGQPASISCRSSQSLLDSDGQTYLYWFQQRPGQSPRRLIYLVSTLGSGVPDRFSGSGSGTDFTLKISRVEAEDVGVYYCMQLTHEPYTFGQGTKLEIK
B16 displayed an IC50 in assay [9] of 0.49 nM. The “IC50; NFAT-luciferase signal (RLU) of Jurkat cells expressing human PD-1, with CHO cells expressing hPD-L1” value in assay [10] turned out to be 5.79 nM. Besides, half-maximal inhibition in assay [11] (IC50) was put at 0.58 nM. In assay [12], this molecule gave a half-maximal effective concentration (EC50) of 0.08 nM. Moreover, in assay [8], the Kd is 0.014 nM, the off-rate constant (koff) amounted to 2.9e-05 s⁻¹ and the association rate constant (kon) was determined as 2.1e+06 M⁻¹ s⁻¹.
